Assay results published in PMC4567348, “Functional Characterization of Hevea brasiliensis CRT/DRE Binding Factor 1 Gene Revealed Regulation Potential in the CBF Pathway of Tropical Perennial Tree”.

Key:
[1] = target: T1, GST-HbCBF1 (Hevea brasiliensis, UniProt Q4KP31 1-231); assay: EMSA; 10 mM Tris-HCl pH 7.5, 100 mM KCl, 10% glycerol, 1 mM DTT, 0.1% NP-40, 1 mM spermidine, 0.5 ug fish sperm DNA, 4 ug protein, 1 ng probe, 25 C; conditions: protein: recombinant; tags: N-terminal GST (pGEX-6p-1); label: 5'-digoxigenin (hot probe); blunt
T1 sequence (Q4KP31 entry or part of it): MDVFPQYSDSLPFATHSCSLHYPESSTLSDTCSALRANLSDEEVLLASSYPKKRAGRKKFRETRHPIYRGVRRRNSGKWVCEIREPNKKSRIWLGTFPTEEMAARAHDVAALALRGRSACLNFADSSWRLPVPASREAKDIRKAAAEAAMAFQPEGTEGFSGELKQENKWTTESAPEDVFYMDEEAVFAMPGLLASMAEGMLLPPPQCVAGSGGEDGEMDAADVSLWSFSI

[2] = target: T1, GST-HbCBF1; assay: competition EMSA; 125-fold molar excess cold competitor vs COR15a probe; 10 mM Tris-HCl pH 7.5, 100 mM KCl, 10% glycerol, 1 mM DTT, 0.1% NP-40, 1 mM spermidine, 0.5 ug fish sperm DNA, 4 ug protein, 1 ng probe, 25 C; conditions: protein: recombinant; tags: N-terminal GST (pGEX-6p-1); blunt

B1: COR15a (dsDNA)
DNA 1: TTTCATGGCCGACCTGCTTTTTT
DNA 2: AAAAAAGCAGGTCGGCCATGAAA
[1]
  binding result: binds

B2: RD29a (dsDNA)
DNA 1: ATATACTACCGACATGAGTTCT
DNA 2: AGAACTCATGTCGGTAGTATAT
[2]
  binding result: binds

B3: COR15b (dsDNA)
DNA 1: CTGATGGCCGACCTCTTTTTT
DNA 2: AAAAAAGAGGTCGGCCATCAG
[2]
  binding result: binds

B4: RD29b (dsDNA)
DNA 1: CTACCGACATGAGTTCCAAAAAA
DNA 2: TTTTTTGGAACTCATGTCGGTAG
[2]
  binding result: binds
